Results reported in paper PMC7041794, “Investigating the ferric ion binding site of magnetite biomineralisation protein Mms6” (PLoS ONE, 2020).

What was measured:
[1] = target: the molecule itself; experiment: SEC; gel filtration of purified SUMO-Mms6 on Superdex S200 10/300 in 20 mM Tris pH 7.4; molecular weights extrapolated from Gel Filtration Marker Kit standards
[2] = target: the molecule itself; experiment: SDS-PAGE; purified proteins on Bio-Rad AnyKd gel, InstantBlue staining; apparent monomer and dimer bands

Row | Protein | stoichiometry N [1] | binding result [2]
1 | SUMO-Mms6 (natural protein, Magnetospirillum magneticum AMB-1, Mms6, Magnetospirillum magneticum AMB-1, mature form (59 residues), the C-terminal stretch of the printed SUMO-Mms6 construct; numbers count on: the mature protein (truncated form isolated by Arakaki et al.); No cleavage of the tags is described; also called wildtype SUMO-Mms6; Mms6 (His6-SUMO fusion); source: E. coli BL21 (DE3) Star, purified (nickel column, dialysis against EDTA and …)) GGTIWTGKGLGLGLGLGLGAWGPIILGVVGAGAVYAYMKSRDIESAQSDEEVELRDALA | 2 | 
2 | SUMO-Mms6 E51A (natural protein, Magnetospirillum magneticum AMB-1, Mms6, Magnetospirillum magneticum AMB-1, mature form; numbers count on: the mature protein; Same tags and construct as m1; source: E. coli BL21 (DE3) Star, purified (nickel column, dialysis); not shown: His6, N-terminal, kept; SUMO (yeast), N-terminal, kept) GGTIWTGKGLGLGLGLGLGAWGPIILGVVGAGAVYAYMKSRDIESAQSDEAVELRDALA |  | binds
3 | SUMO-Mms6 R55A (natural protein, Magnetospirillum magneticum AMB-1, Mms6, Magnetospirillum magneticum AMB-1, mature form; numbers count on: the mature protein; Same tags and construct as m1; source: E. coli BL21 (DE3) Star, purified (nickel column, dialysis); not shown: His6, N-terminal, kept; SUMO (yeast), N-terminal, kept) GGTIWTGKGLGLGLGLGLGAWGPIILGVVGAGAVYAYMKSRDIESAQSDEEVELADALA |  | binds
4 | SUMO-Mms6 E44A (natural protein, Magnetospirillum magneticum AMB-1, Mms6, Magnetospirillum magneticum AMB-1, mature form; numbers count on: the mature protein; Same tags and construct as m1; source: E. coli BL21 (DE3) Star, purified (nickel column, dialysis); not shown: His6, N-terminal, kept; SUMO (yeast), N-terminal, kept) GGTIWTGKGLGLGLGLGLGAWGPIILGVVGAGAVYAYMKSRDIASAQSDEEVELRDALA |  | binds
5 | SUMO-Mms6 E50A (natural protein, Magnetospirillum magneticum AMB-1, Mms6, Magnetospirillum magneticum AMB-1, mature form; numbers count on: the mature protein; Same tags and construct as m1; source: E. coli BL21 (DE3) Star, purified (nickel column, dialysis); not shown: His6, N-terminal, kept; SUMO (yeast), N-terminal, kept) GGTIWTGKGLGLGLGLGLGAWGPIILGVVGAGAVYAYMKSRDIESAQSDAEVELRDALA |  | binds
6 | SUMO-Mms6 D49A (natural protein, Magnetospirillum magneticum AMB-1, Mms6, Magnetospirillum magneticum AMB-1, mature form; numbers count on: the mature protein; Same tags and construct as m1; source: E. coli BL21 (DE3) Star, purified (nickel column, dialysis); not shown: His6, N-terminal, kept; SUMO (yeast), N-terminal, kept) GGTIWTGKGLGLGLGLGLGAWGPIILGVVGAGAVYAYMKSRDIESAQSAEEVELRDALA |  | binds
7 | SUMO-Mms6 E53A (natural protein, Magnetospirillum magneticum AMB-1, Mms6, Magnetospirillum magneticum AMB-1, mature form; numbers count on: the mature protein; Same tags and construct as m1; source: E. coli BL21 (DE3) Star, purified (nickel column, dialysis); not shown: His6, N-terminal, kept; SUMO (yeast), N-terminal, kept) GGTIWTGKGLGLGLGLGLGAWGPIILGVVGAGAVYAYMKSRDIESAQSDEEVALRDALA |  | binds
8 | SUMO-Mms6 EE50AA (natural protein, Magnetospirillum magneticum AMB-1, Mms6, Magnetospirillum magneticum AMB-1, mature form; numbers count on: the mature protein; Same tags and construct as m1; also called double mutant; source: E. coli BL21 (DE3) Star, purified (nickel column, dialysis); not shown: His6, N-terminal, kept; SUMO (yeast), N-terminal, kept) GGTIWTGKGLGLGLGLGLGAWGPIILGVVGAGAVYAYMKSRDIESAQSDAAVELRDALA |  | binds
9 | SUMO-Mms6 D42A (natural protein, Magnetospirillum magneticum AMB-1, Mms6, Magnetospirillum magneticum AMB-1, mature form; numbers count on: the mature protein; Same tags and construct as m1 (pET28SUMOmms6, site directed mutagenesis); source: E. coli BL21 (DE3) Star, purified (nickel column, dialysis); not shown: His6, N-terminal, kept; SUMO (yeast), N-terminal, kept) GGTIWTGKGLGLGLGLGLGAWGPIILGVVGAGAVYAYMKSRAIESAQSDEEVELRDALA |  | binds
